Source: patent US20030235860A1, “Interactions between AR, ER, TR2, and TR4” (priority 1999, published 2003)

T1: AR (Homo sapiens, UniProt P10275, DEL79-80/DUP473-473)
T1 sequence (P10275 with tags, fused parts or gaps DEL79-80/DUP473-473): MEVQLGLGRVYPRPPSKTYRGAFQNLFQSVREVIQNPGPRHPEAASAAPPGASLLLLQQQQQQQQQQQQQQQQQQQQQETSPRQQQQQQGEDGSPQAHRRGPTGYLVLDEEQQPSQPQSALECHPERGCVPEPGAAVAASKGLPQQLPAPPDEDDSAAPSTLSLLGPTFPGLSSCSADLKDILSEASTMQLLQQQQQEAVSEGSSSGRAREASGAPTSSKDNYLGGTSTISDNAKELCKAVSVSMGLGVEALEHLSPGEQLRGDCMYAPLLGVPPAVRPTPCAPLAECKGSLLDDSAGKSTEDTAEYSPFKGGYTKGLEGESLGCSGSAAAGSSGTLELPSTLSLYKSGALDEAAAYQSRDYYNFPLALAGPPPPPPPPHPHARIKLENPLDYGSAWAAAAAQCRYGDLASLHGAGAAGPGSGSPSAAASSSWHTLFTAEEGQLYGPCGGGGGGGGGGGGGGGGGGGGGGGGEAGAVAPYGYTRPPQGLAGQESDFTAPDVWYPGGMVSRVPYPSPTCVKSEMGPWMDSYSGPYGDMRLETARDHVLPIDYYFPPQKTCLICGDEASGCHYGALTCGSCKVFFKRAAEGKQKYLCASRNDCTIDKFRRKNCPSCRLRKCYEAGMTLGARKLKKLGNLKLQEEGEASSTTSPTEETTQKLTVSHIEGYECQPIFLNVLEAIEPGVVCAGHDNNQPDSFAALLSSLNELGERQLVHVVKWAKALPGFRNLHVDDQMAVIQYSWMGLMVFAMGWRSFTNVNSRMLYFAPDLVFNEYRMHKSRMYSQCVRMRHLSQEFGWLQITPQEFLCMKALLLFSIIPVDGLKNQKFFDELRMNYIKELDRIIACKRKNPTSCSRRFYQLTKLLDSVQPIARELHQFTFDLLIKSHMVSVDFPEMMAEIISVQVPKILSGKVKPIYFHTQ


Assays:
PR = experiment: Endogenous PR expression in T47D cells (Northern / Western); assay type: cell-based, human
Method: The method was used as previously described, Lee & Chang. (1996) J. Biol. Chem. 271. 10405-10412, with some modifications. Briefly. 5 μg of pCMV-TR2 was transiently transfected into T47D cells and lysed in RIPA buffer (10 mM sodium phosphate, pH 7.0. 150 mM NaCL, 2 mM EDT A. 1% (w/v) Nonidet P-40, 0.1% (w/v) SDS. 1% (w/v) sodium deoxycholate) with freshly adding proteinase inhibitors. The soluble protein was quantified using the Bio-Rad Protein Assay reagent (Bio-Rad Laboratories) and 50 μg soluble proteins were loaded onto SDS/10% PAGE and then transferred to Immobion-P transfer membrane (Millipore). After the blocking reaction overnight, the membrane was incubated with […] anti-PR polyclonal antibody (H-190. Santa Cruz) in PBS(−) containing 0.1% Skim milk for 2 h at room temperature. The membrane was washed and then incubated in 15 μCi 125I] of protein-A (DuPont NEN)/30 ml of PBS(−) containing 0.1% Skim milk for 1 h at room temperature. The western blots were autoradiographed and quantitated by using Phosphorlmager.
RNA isolation and Northern blot analysis were performed as previously described. Young, et al., J. Biol. Chem. 273,20877-20885 (1998).
Next it was determined if TR2 could repress the ER endogenous target gene expression. PR was chosen because it is well studied as an E2-ER target gene in T47D cells. Misrahi et al., Biochem. Biophys. Res. Commun. 143, 740-748 (1987). […] Cells were then used for RNA isolation (Northern blot analysis) and lysate protein extraction (Western blot analysis). For RNA analysis, total RNAs were isolated, and Northern blots were performed using [32P] labeled PR cDNA probes. The membrane was autoradiographed. For Protein Western blot analysis, cells lysates were prepared and PR proteins were visualized by radioimmunoblot. The membrane was autoradiographed to Phosphorimager and was quantitated by ImageQuant software.

AR = target: T1, AR; experiment: Immunocytofluorescence of AR localization in DU145 cells; assay type: cell-based; design: expressed in transfected cells; host or cells: DU145 cells; conditions: absence of DHT
Method: DU145 cells were seeded on two-well Lab Tek Chamber slides (Nalge Nunc International) 18 h before transfection. One to two μg of DNA per 10^5 cells was transfected by the FuGENETM 6 transfection reagent (Boehringer-Mannheim). […] Immunostaining was performed by incubating with anti-AR polyclonal antibody (NH27), anti-TR4 monoclonal antibody (#15), and anti-ERa monoclonal antibody (C-314, Santa Cruz), followed by incubation with either fluorescein-conjugated goat anti-rabbit or anti-mouse antibodies (ICN Pharmaceuticals, Inc.). […] The slides were photographed under 100-fold magnification using confocal microscopy.
An immunocytofluorescence assay was then applied to determine the subcellular localization of the AR and TR4 in DU145 cells. DU145 cells were seeded on two-well Lab Tek Chamber slides (Nalge Nunc International) 18 hours before transfection. One to two μg of DNA per 105 cells was transfected either with AR (unliganded or liganded), TR4, or ER alone or in combination with the FuGENETM6 transfection reagent (Boehringer-Mannheim). […] Immunostaining was performed by incubation with the anti-AR polyclonal antibody, anti-TR4 monoclonal antibody, or anti-ERa monoclonal antibody, followed by incubation with either fluorescein-conjugated goat anti-rabbit or anti-mouse antibodies (ICN Pharmaceuticals, Inc.).

Subcellular localization of unliganded AR on co-transfection (AR)	Molecule	E2-induced PR expression at mRNA and protein levels (PR; T47D cells and MCF7 cells, Example 2)	Expression of endogenous PR mRNA (PR; T47D cells transfected with pCMV-TR2, 10 nM E2)	Endogenous PR expression (Western blot) (PR; T47D cells, similar in MCF7)
–	TR2: human testicular orphan nuclear receptor 2, 603 amino acids (protein, UniProt P13056 1-603, looked up, full-length, human testicular orphan nuclear receptor 2, 603 amino acids) MATIEEIAHQIIEQQMGEIVTEQQTGQKIQIVTALDHNTQGKQFILTNHDGSTPSKVILARQDSTPGKVFLTTPDAAGVNQLFFTTPDLSAQHLQLLTDNSPDQGPNKVFDLCVVCGDKASGRHYGAVTCEGCKGFFKRSIRKNLVYSCRGSKDCIINKHHRNRCQYCRLQRCIAFGMKQDSVQCERKPIEVSREKSSNCAASTEKIYIRKDLRSPLTATPTFVTDSESTRSTGLLDSGMFMNIHPSGVKTESAVLMTSDKAESCQGDLSTLANVVTSLANLGKTKDLSQNSNEMSMIESLSNDDTSLCEFQEMQTNGDVSRAFDTLAKALNPGESTACQSSVAGMEGSVHLITGDSSINYTEKEGPLLSDSHVAFRLTMPSPMPEYLNVHYIGESASRLLFLSMHWALSIPSFQALGQENSISLVKAYWNELFTLGLAQCWQVMNVATILATFVNCLHNSLQQDKMSTERRKLLMEHIFKLQEFCNSMVKLCIDGYEYAYLKAIVLFSPDHPSLENMEQIEKFQEKAYVEFQDYITKTYPDDTYRLSRLLLRLPALRLMNATITEELFFKGLIGNIRIDSVIPHILKMEPADYNSQIIGHSI	repress	clearly repressed	repress
moves into the nucleus	TR4: human testicular orphan nuclear receptor 4, SEQ ID NO:16; expressed from plasmid or in vitro translated (protein) MTSPSPRIQIISTDSAVASPQRIQGSEPASGPLSVFTSLNKEKIVTDQQTGQKIQIVTAVDASGSPKQQFILTSPDGAGTGKVILASPETSSAKQLIFTTSDNLVPGRIQIVTDSASVERLLGKTDVQRPQVVEYCVVCGDKASGRHYGAVSCEGCKGFFKRSVRKNLTYSCRSSQDCIINKHHRNRCQFCRLKKCLEMGMKMESVQSERKPFDVQREKPSNCAASTEKIYIRKDLRSPLIATPTFVADKDGARQTGLLDPGMLVNIQQPLIREDGTVLLATDSKAETSQGALGTLANVVTSLANLSESLNNGDTSEIQPEDQSASEITRAFDTLAKALNTTDSSSSPSLADGIDTSGGGSIHVISRDQSTPIIEVEGPLLSDTHVTFKLTMPSPMPEYLNVHYICESASRLLFLSMHRARSIPAFQGLGQDCNTSLVRACWNELFTLGLAQCAQVMSLSTILAAIVNHLQNSIQEDKLSGDRIKQVMEHIWKLQEFCNSMANWDIDGYEYAYLKAIVLFSPDHPGLTSTSQIEKFQEKAQMELQDYVQKTYSEDTYRLARILVRLPALRLMSSNITEELFFTGLIGNVSIDSIIPYILKMETAEYNGQITGVSL	–	–	–
